Consider 4 molecules from patent US5741673, “Nucleic acid encoding a novel homeobox factor which stimulates insulin expression in pancreatic islet cells” (Research Development Foundation).

Data set [1] has as its target T1, ITF-1 full length (CMV expression) (rat, UniProt P52947 SEQ:1-283). Briefly: cell_activity; TSE II somatostatin reporter in HeLa cells.
Data set [2] deals with ITF-1 fragment aa 124-283 (thrombin-cleaved from GST fusion) (rat, UniProt P52947 SEQ:124-283). In words: footprint; DNase I; also bound in EMSA. The conditions noted are these: tags: GST removed by thrombin. On the technique in general: In EMSA bound probe runs differently from free probe, usually more slowly.
For data set [3], the target named is T1, ITF-1 full length (CMV expression). In words: cell_activity; TSE I somatostatin reporter in HeLa cells.

T1 sequence (P52947 whole entry, the tested form may be a part): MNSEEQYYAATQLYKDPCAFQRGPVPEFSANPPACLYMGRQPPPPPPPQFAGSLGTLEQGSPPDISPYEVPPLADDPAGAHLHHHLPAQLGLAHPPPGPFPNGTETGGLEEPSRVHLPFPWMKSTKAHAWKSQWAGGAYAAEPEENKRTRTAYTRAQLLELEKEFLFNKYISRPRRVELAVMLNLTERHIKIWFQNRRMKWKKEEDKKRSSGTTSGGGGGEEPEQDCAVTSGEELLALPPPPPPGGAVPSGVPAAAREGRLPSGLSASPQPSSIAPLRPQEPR
Sequence of ITF-1 fragment aa 124-283 (thrombin-cleaved from GST fusion) (P52947 124-283): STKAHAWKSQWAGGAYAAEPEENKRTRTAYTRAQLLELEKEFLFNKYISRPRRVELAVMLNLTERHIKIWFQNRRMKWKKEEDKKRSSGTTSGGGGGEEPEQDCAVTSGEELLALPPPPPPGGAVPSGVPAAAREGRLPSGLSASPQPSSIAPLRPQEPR

B1: somatostatin TSE II (dsDNA)
DNA 1: GATCTCAGTAATAATCATGCAG
DNA 2: CTGCATGATTATTACTGAGATC
As to B1, the activity in data set [1] is ~12 fold.

B2: rat insulin I FLAT (E2) (dsDNA)
DNA 1: TTAATAATCTAATTACCC
DNA 2: GGGTAATTAGATTATTAA
Consider B2, for which the binding result in data set [2] was “binds”.

B3: rat insulin I P-Box (dsDNA)
DNA 1: CTTAATGGGCCAAACGGCA
DNA 2: TGCCGTTTGGCCCATTAAG
For B3, the binding result in data set [2] is “binds”.

B4: somatostatin TSE I (dsDNA)
DNA 1: TTGCGAGGCTAATGGTGCG
DNA 2: CGCACCATTAGCCTCGCAA
As to B4, in data set [3], the activity is ~12 fold.
